Assay results from paper PMC8092134, “Cryptic β-Lactamase Evolution Is Driven by Low β-Lactam Concentrations” (mSphere, 2021).

Biological target: the molecule itself
Assay: crystal structure; hanging drop, 5 mg/ml enzyme, 0.1 M Tris pH 9.0, 28 to 30% PEG mono ethylene ether 500, 4°C; soaked with ceftazidime; space group P2(1)2(1)2(1), four chains in the asymmetric unit

B1: OXA-48 variant L67F (enzyme)
chain: KEWQENKSWNAHFTEHKSQGVVVLWNENKQQGFTNNLKRANQAFFPASTFKIPNSLIALDLGVVKDEHQVFKWDGQTRDIATWNRDHNLITAMKYSVVPVYQEFARQIGEARMSKMLHAFDYGNEDISGNVDSFWLDGGIRISATEQISFLRKLYHNKLHVSERSQRIVKQAMLTEANGDYIIRAKTGYSTRIEPKIGWWVGWVELDDNVWFFAMNMDMPTSDGLGLRQAITKEVLKQEKIIP
modifications: carboxylated lysine at K73
notes: point mutation L67F made by site-directed mutagenesis; Crystals were soaked with ceftazidime; chains C and D carry a hydrolysed ceftazidime molecule; also called OXA-48 L67F; source: E. coli BL21 AI (pDEST17), purified
stoichiometry N: 2
